Publication PMC5681435, “Differential Regulation of G1 CDK Complexes by the Hsp90-Cdc37 Chaperone System” (Cell Reports, 2017)
Where a chain is given by its changes, count along the chain named. Names and notes keep the numbering of the source.

T1: biotinylated C-terminally Avi-tagged Cdc37 (human, UniProt Q16543 1-378, biotin (on the Avi tag))
T1 construct: not shown: Avi tag, C-terminal, kept
T1 sequence (looked up): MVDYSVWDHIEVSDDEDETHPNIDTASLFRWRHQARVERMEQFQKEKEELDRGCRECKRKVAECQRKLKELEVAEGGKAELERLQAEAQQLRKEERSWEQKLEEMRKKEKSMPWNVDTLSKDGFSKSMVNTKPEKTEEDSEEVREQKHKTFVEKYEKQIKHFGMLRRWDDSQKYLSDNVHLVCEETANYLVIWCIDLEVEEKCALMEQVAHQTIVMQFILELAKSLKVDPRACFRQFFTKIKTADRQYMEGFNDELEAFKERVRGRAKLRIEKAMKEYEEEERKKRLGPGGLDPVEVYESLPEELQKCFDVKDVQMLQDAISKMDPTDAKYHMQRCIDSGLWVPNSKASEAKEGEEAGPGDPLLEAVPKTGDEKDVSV

B1: GSTCDK4 (enzyme, human, UniProt P11802 1-303, looked up)
chain: MATSRYEPVAEIGVGAYGTVYKARDPHSGHFVALKSVRVPNGGGGGGGLPISTVREVALLRRLEAFEHPNVVRLMDVCATSRTDREIKVTLVFEHVDQDLRTYLDKAPPPGLPAETIKDLMRQFLRGLDFLHANCIVHRDLKPENILVTSGGTVKLADFGLARIYSYQMALTPVVVTLWYRAPEVLLQSTYATPVDMWSVGCIFAEMFRRKPLFCGNSEADQLGKIFDLIGLPPEDDWPRDVSLPRGAFPPRGPRPVQSVVPEMEESGAQLLLEMLTFNPHKRISAFRALQHSYLHKDEGNPE
notes: also called GST-tagged CDK4
B2: Avi-tagged Kcyclin (natural protein)
chain: MATANNPPSGLLDPTLCEDRIFYNILEIEPRFLTSDSVFGTFQQSLTSHMRKLLGTWMFSVCQEYNLEPNVVALALNLLDRLLLIKQVSKEHFQKTGSACLLVASKLRSLTPISTSSLCYAAADSFSRQELIDQEKELLEKLAWRTEAVLATDVTSFLLLKLLGGSQHLDFWHHEVNTLITKALVDPKTGSLPASIISAAGCALLVPANVIPQDTHSGGVVPQLASILGCDVSVLQAAVEQILTSVSDFDLRILDSY
modifications: biotin (on the Avi tag)
notes: also called viral D-type cyclin from Kaposi's sarcoma-associated herpesvirus; source: purified
B3: untagged p16INK4a (natural protein, UniProt P42771 1-156, looked up)
chain: MEPAAGSSMEPSADWLATAAARGRVEEVRALLEAGALPNAPNSYGRRPIQVMMMGSARVAELLLLHGAEPNCADPATLTRPVHDAAREGFLDTLVVLHRAGARLDVRDAWGRLPVDLAEELGHRDVARYLRAAAGGTRGSNHARIDAAEGPSDIPD
notes: also called wild-type p16INK4a; authentic p16INK4a
B4: p16M53E (natural protein, UniProt P42771 1-156, looked up)
chain: B3 chain with M53E
notes: also called p16INK4a M53E
B5: p16D84N (natural protein, UniProt P42771 1-156, looked up)
chain: B3 chain with D84N
notes: also called p16INK4a D84N
B6: p16M53I (natural protein, UniProt P42771 1-156, looked up)
chain: B3 chain with M53I
notes: also called p16INK4a M53I
B7: p16D108N (natural protein, UniProt P42771 1-156, looked up)
chain: B3 chain with D108N
notes: also called p16INK4a D108N
B8: Vcyclin (Avi-tagged, for direct HTRF) (natural protein)
chain: MADSPNRLNRAKIDSTTMKDPRVLNNLKLRELLLPKFTSLWEIQTEVTVDNRTILLTWMHLLCESFELDKSVFPLSVSILDRYLCKKQGTKKTLQKIGAACVLIGSKIRTVKPMTVSKLTYLSCDCFTNLELINQEKDILEALKWDTEAVLATDFLIPLCNALKIPEDLWPQLYEAASTTICKALIQPNIALLSPGLICAGGLLTTIETDNTNCRPWTCYLEDLSSILNFSTNTVRTVKDQVSEAFSLYDLEIL
modifications: biotin (on the Avi tag)
notes: also called viral D-type cyclin from Herpesvirus saimiri; source: purified

How the values were obtained:
Conditions in all cases: both partners purified
[1] = molecular target: T1, biotinylated C-terminally Avi-tagged …; experiment: AlphaScreen or HTRF; direct binding: GST-fused CDK (10 nM) and biotinylated Avi-tagged partner titrated; terbium-conjugated anti-GST antibody and streptavidin-XL665
GSTCDK4 [2] = molecular target: B1; experiment: as above
GSTCDK6 [3] = molecular target: T2, GSTCDK6 (human, UniProt Q00534 1-326); experiment: as above
T2 construct: also called GST-tagged CDK6
T2 sequence (Q00534 whole entry): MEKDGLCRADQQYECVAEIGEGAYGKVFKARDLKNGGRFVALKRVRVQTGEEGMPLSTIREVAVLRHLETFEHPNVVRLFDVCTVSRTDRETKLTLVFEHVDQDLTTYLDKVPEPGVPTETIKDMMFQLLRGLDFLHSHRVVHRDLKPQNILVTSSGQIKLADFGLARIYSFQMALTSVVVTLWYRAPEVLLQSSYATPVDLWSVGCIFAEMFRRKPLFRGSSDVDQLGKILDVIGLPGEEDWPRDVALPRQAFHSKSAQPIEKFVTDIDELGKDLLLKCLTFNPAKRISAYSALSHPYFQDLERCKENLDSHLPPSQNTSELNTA

GSTCDK4 [4] = molecular target: B1; experiment: SPR
GSTCDK6 [5] = molecular target: T2, GSTCDK6; experiment: SPR
GSTCDK4 [6] = molecular target: B1; experiment: SPR; remark: listed apart in the source
GSTCDK6 [7] = molecular target: T2, GSTCDK6; experiment: SPR; remark: listed apart in the source

B1
Kd [1]: 92 nM

B2
Kd (GSTCDK4 [2]): 24.9 nM
Kd (GSTCDK6 [3]): 10 nM

B3
Kd (GSTCDK4 [4]): 0.87 nM
Kd (GSTCDK6 [5]): 0.26 nM

B4
binding result (GSTCDK4 [6]): binds
Kd (GSTCDK6 [5]): 1.56 nM

B5
binding result (GSTCDK4 [6]): binds
Kd (GSTCDK6 [5]): 59.7 nM

B6
fold reduction in the strength of the interaction against wild-type p16INK4a (GSTCDK4 [6]): > 1e+06 fold
fold higher rate of dissociation against wild-type p16INK4a (GSTCDK6 [7]): ~10 fold
Kd (GSTCDK6 [5]): 0.73 nM

B7
Kd (GSTCDK4 [4]): 2.56 nM
Kd (GSTCDK6 [5]): 0.28 nM

B8
Kd (GSTCDK4 [2]): 151 nM
Kd (GSTCDK6 [3]): 14.9 nM
